Assay results: US20100311184A1, “AZO HETEROCYCLIC DYES AND THEIR BIOLOGICAL CONJUGATES” (AAT BIOQUEST, INC., priority 2009, published 2010)
Where no end group is shown, it is not given here. Compound 12 = dye made from 2-amino-6-nitrobenzothiazole and 3-(1'-oxo-3'-carboxypropylamino)-N,N-dimethylaniline

Molecular target: HIV-1 protease (Human immunodeficiency virus type 1 group M subtype B, UniProt P04585)
Assay: Fluorogenic HIV protease assay with FRET peptides (FIG. 3)
Assay type: biochemical
Conditions: FRET peptide substrate, purified enzyme
From the text: Inhibition of HIV-1 protease represents an important avenue for AIDS therapy. Currently combination chemotherapy of reverse transcriptase inhibitors and protease inhibitors have shown to suppress the replication of HIV-1 and extend the life expectancy of HIV-1-infected individuals. The following FRET peptides of the instant disclosure are screened for developing a fluorogenic HIV protease assay. The enzyme assays are done with purified enzymes. Absorption spectra were taken with Hitachi U-3010. Endpoint fluorescence assays are run on either BMG NovoStar or Gemini SpectraMax (Molecular Devices). Enzyme kinetic assays are run on FlexStation (Molecular Devices). […] FRET Peptides #6 and #7 might be used for monitoring HIV protease activity in combination with a flow cytometer.
All the above FRET peptides are synthesized using the standard FMOC chemistry. Some of the TQ peptides were prepared using FMOC-Lys (Compound 12)-OH. For the post-labeling of the premade peptides, Dye NHS esters were used for labeling N-terminal amino or ε-amino group of lysine residue. Dye maleimides were used for labeling the SH group of cysteine residues.

Arg-Glu(5-TAMRA)-Val-Ser-Phe-Asn-Phe-Pro-Gln-Ile-Thr-Lys(Compound 12)-Arg ({Arg-Glu(5-TAMRA)}-VSFNFPQITK(Compound 12)R) [FRET peptide #2]
response to HIV-1 protease: excellent response
